Data: patent publication US20260132182A1 (published 2026)
Starred links: 1 amine or outer side, 2 acyl side, 3 side chain; linkers in the order of their positions; H or OH if unused. Non-standard residues stand in square brackets, D forms with d. Groups on a side chain read outwards from the residue. *: point of attachment. Hexadecanoyl(16-SO3H) = O=C(CCCCCCCCCCCCCCCS(=O)(=O)O)*; C20 diacid = O=C(O)CCCCCCCCCCCCCCCCCCC(=O)*; C18 diacid = O=C(O)CCCCCCCCCCCCCCCCC(=O)*; C16 diacid = O=C(O)CCCCCCCCCCCCCCC(=O)*; γGlu = O=C(O)[C@H](CCC(=O)[*:2])N[*:1]; C14 diacid = O=C(O)CCCCCCCCCCCCC(=O)*; εLys = N[C@@H](CCCCN[*:1])C(=O)[*:2]; AEEA = NCCOCCOCC(=O)O; Aib = CC(C)(N)C(=O)O; Ahx = NCCCCCC(=O)O

B1: Compound 0634 (peptide)
peptide: H[Aib]EGTFTSDVSK([γGlu-γGlu-γGlu-γGlu-C16 diacid])YLEEQAARK([γGlu-γGlu-γGlu-γGlu-C16 diacid])FIAWLVRGRGEASELSTAALGRLSAELHELATLPRTETGSGSP-NH2
B2: Compound 0635 (peptide)
peptide: H[Aib]EGTFTSDVSK([AEEA-AEEA-γGlu-C14 diacid])YLEEQAARKFIAWLVRGRK([AEEA-AEEA-γGlu-C14 diacid])GGEASELSTAALGRLSAELHELATLPRTETGSGSP-NH2
modifications: not fully specified (residue 21)
B3: Compound 0071 (peptide)
peptide: H[Aib]EGTFTSDVSSYLEGQAAK([AEEA-AEEA-γGlu-C18 diacid])EFIAWLVRGRGGQEPGQEPK([AEEA-AEEA-γGlu-C18 diacid])EASELSTAALGRLSAELHELATLPRTETGSGSP-NH2
B4: Compound 0637 (peptide)
peptide: H[Aib]EGTFTSDVSSYLEEQAAREFIAWLVRGRK([AEEA-AEEA-γGlu-C18 diacid])GGGGSGGGEASELSTAALGRLSAELHELATLPRTETGSGSP-NH2
B5: Compound 0638 (peptide)
peptide: H[Aib]EGTFTSDVSSYLEEQAAREFIAWLVRGRK([AEEA-AEEA-γGlu-C20 diacid])GGGGSGGGEASELSTAALGRLSAELHELATLPRTETGSGSP-NH2
B6: Compound 0639 (peptide)
peptide: H[Aib]EGTFTSDVSSYLEEQAARK([AEEA-AEEA-γGlu-C18 diacid])FIAWLVRGRGGGGGEASELSTAALGRLSAELHELATLPRTETGSGSP-NH2
B7: Compound 0640 (peptide)
peptide: H[Aib]EGTFTSDVSK([AEEA-AEEA-γGlu-C18 diacid])YLEEQAAREFIAWLVRGRGGGGGEASELSTAALGRLSAELHELATLPRTETGSGSP-NH2
B8: Compound 0648 (peptide)
peptide: HWEGTFTSDVSSYLEEQAAREFIAWLVRGRK([AEEA-AEEA-γGlu-C18 diacid])GGGGEASELSTAALGRLSAELHELATLPRTETGSGSP-NH2
B9: Compound 0654 (peptide)
peptide: H[Aib]EGTFTSDVSSYLEEQAAREFIAWLVRGRK([AEEA-AEEA-γGlu-Hexadecanoyl(16-SO3H)])GGGGEASELSTAALGRLSAELHELATLPRTETGSGSP-NH2
B10: Compound 0655 (peptide)
peptide: H[Aib]EGTFTSDVSSYLEEQAAREFIAWLVRGRK([AEEA-AEEA-γGlu-17‑(1H-tetrazol-5-yl)heptadecanoyl])GGGGEASELSTAALGRLSAELHELATLPRTETGSGSP-NH2
B11: Compound 0656 (peptide)
peptide: H[Aib]EGTFTSDVSSYLEEQAAREFIAWLVRGRK([εLys-εLys-γGlu-C18 diacid])GGGGEASELSTAALGRLSAELHELATLPRTETGSGSP-NH2
B12: Compound 0657 (peptide)
peptide: H[Aib]EGTFTSDVSSYLEEQAAREFIAWLVRGRK([εLys-εLys-γGlu-C20 diacid])GGGGEASELSTAALGRLSAELHELATLPRTETGSGSP-NH2
B13: Compound 0658 (peptide)
peptide: H[Aib]EGTFTSDVSSYLEEQAAREFIAWLVRGRK([Ahx-Ahx-γGlu-C18 diacid])GGGGEASELSTAALGRLSAELHELATLPRTETGSGSP-NH2
B14: Compound 0659 (peptide)
peptide: H[Aib]EGTFTSDVSSYLEEQAAREFIAWLVRGRK([Ahx-Ahx-γGlu-C20 diacid])GGGGEASELSTAALGRLSAELHELATLPRTETGSGSP-NH2
B15: Compound 0660 (peptide)
peptide: H[Aib]EGTFTSDVSSYLEEQAAREFIAWLVRGRK([AEEA-γGlu-C18 diacid])GGGGEASELSTAALGRLSAELHELATLPRTETGSGSP-NH2
B16: Compound 0661 (peptide)
peptide: H[Aib]EGTFTSDVSSYLEEQAAREFIAWLVRGRK([AEEA-AEEA-AEEA-γGlu-C18 diacid])GGGGEASELSTAALGRLSAELHELATLPRTETGSGSP-NH2
B17: Compound 0662 (peptide)
peptide: H[Aib]EGTFTSDVSSYLEEQAAREFIAWLVRGRK([AEEA-AEEA-AEEA-AEEA-γGlu-C18 diacid])GGGGEASELSTAALGRLSAELHELATLPRTETGSGSP-NH2
B18: Compound 0663 (peptide)
peptide: H[Aib]EGTFTSDVSSYLEEQAAREFIAWLVRGRK([AEEA-AEEA-AEEA-AEEA-γGlu-C20 diacid])GGGGEASELSTAALGRLSAELHELATLPRTETGSGSP-NH2
B19: Compound 0074 (peptide)
peptide: H[Aib]EGTFTSDVSSYLEEQAARK([AEEA-AEEA-γGlu-C16 diacid])FIAWLVRGRGGK([AEEA-AEEA-γGlu-C16 diacid])EASELSTAALGRLSAELHELATLPRTETGSGSP-NH2
B20: Compound 0075 (peptide)
peptide: H[Aib]EGTFTSDVSSYLEGQAAK([AEEA-AEEA-γGlu-C16 diacid])EFIAWLVRGK([AEEA-AEEA-γGlu-C16 diacid])GGGEASELSTAALGRLSAELHELATLPRTETGSGSP-NH2
B21: Compound 0076 (peptide)
peptide: H[Aib]EGTFTSDVSSYLEEQAARK([AEEA-AEEA-γGlu-C16 diacid])FIAWLVRGK([AEEA-AEEA-γGlu-C16 diacid])GGGEASELSTAALGRLSAELHELATLPRTETGSGSP-NH2
B22: Compound 0077 (peptide)
peptide: H[Aib]EGTFTSDVSSYLEEQAARK([AEEA-AEEA-γGlu-C16 diacid])FIAWLVK([AEEA-AEEA-γGlu-C16 diacid])GRGGGEASELSTAALGRLSAELHELATLPRTETGSGSP-NH2
B23: Compound 0083 (peptide)
peptide: H[Aib]EGTFTSDVSSYLEGQAAREFIAWLVRGRK([AEEA-AEEA-γGlu-C18 diacid])GQEPGQAPEASELSTAALGRLSAELHELATLPRTETGSGSP-NH2
B24: Compound 0084 (peptide)
peptide: H[Aib]EGTFTSDVSSYLEGQAAREFIAWLVRGRGQEPK([AEEA-AEEA-γGlu-C18 diacid])GQAPEASELSTAALGRLSAELHELATLPRTETGSGSP-NH2
B25: Compound 0085 (peptide)
peptide: H[Aib]EGTFTSDVSSYLEGQAAREFIAWLVRGRGQEPGQAPK([AEEA-AEEA-γGlu-C18 diacid])EASELSTAALGRLSAELHELATLPRTETGSGSP-NH2
B26: Compound 0010 (peptide)
peptide: H[Aib]EGTFTSDVSSYLEGQAAREFIAWLVRGRGEGEGEK([AEEA-AEEA-γGlu-C18 diacid])EASELSTAALGRLSAELHELATLPRTETGSGSP-NH2
B27: Compound 0086 (peptide)
peptide: H[Aib]EGTFTSDVSSYLEEQAARK([AEEA-AEEA-γGlu-C16 diacid])FIEWLVRGK([AEEA-AEEA-γGlu-C16 diacid])GEGGEASELSTAALGRLSAELHELATLPRTETGSGSP-NH2

Legend:
[1] = molecular target: T1, human amylin-3 (a) receptor (human, UniProt P30988 25-474; O60896 24-148); assay: cell-based or functional assay
T1 sequence (looked up) 1: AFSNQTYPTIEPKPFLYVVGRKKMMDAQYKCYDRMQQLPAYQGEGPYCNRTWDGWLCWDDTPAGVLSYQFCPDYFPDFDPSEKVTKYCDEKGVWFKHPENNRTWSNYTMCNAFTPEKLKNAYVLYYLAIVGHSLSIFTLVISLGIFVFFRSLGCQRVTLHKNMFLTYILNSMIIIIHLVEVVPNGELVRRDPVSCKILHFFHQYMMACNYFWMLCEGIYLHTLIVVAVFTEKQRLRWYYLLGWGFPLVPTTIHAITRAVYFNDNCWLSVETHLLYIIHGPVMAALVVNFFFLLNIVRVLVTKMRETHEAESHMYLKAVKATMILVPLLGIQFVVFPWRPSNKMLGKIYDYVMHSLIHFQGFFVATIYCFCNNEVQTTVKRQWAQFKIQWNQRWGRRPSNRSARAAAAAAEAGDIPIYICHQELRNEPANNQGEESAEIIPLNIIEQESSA
T1 sequence (looked up) 2: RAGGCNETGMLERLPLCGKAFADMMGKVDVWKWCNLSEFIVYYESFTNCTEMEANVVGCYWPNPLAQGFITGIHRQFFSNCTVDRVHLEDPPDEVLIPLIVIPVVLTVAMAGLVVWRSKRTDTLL

[2] = molecular target: human GLP-1 receptor (human, UniProt P43220 24-463); assay: cell-based or functional assay

Binder	Human AmyR3 potency [EC50 (pM)] [1]	Human GLP-1R potency [EC50 (pM)] [2]
B1	59.4 pM	14.7 pM
B2	78.9 pM	7.3 pM
B3	159 pM	69.4 pM
B4	14.1 pM	1.9 pM
B5	6.9 pM	4.6 pM
B6	4.6 pM	1.5 pM
B7	6 pM	2.3 pM
B8	9.2 pM	17 pM
B9	11.3 pM	2.9 pM
B10	11.4 pM	3 pM
B11	13.3 pM	4.1 pM
B12	10.4 pM	9.9 pM
B13	11 pM	3.1 pM
B14	11.5 pM	4.7 pM
B15	12.7 pM	3.9 pM
B16	14.4 pM	2.8 pM
B17	14.6 pM	3 pM
B18	12.6 pM	3.2 pM
B19	60.9 pM	0.8 pM
B20	43.9 pM	84.5 pM
B21	46.4 pM	1.7 pM
B22	25.7 pM	2.1 pM
B23	46.2 pM	5.4 pM
B24	14 pM	2.5 pM
B25	55.8 pM	2.2 pM
B26	37 pM	5.4 pM
B27	78.3 pM	3.9 pM
